The target of this test is SARS-CoV-2 spike receptor-binding domain (RBD), amino acids 333 to 529, bacteria-expressed and refolded (SARS-CoV-2, wild type (parental), UniProt P0DTC2). The test can be described thus: SPR. As to conditions: both partners purified.

B1: Sybody Sb68 (VHH)
VHH: QVQLVESGGGSVQAGGSLRLSCAASGSISSITYLGWFRQAPGKEREGVAALITVNGHTYYADSVKGRFTVSLDNAKNTVYLQMNSLKPEDTALYYCAAAAWGYAWPLHQDDYWYWGQGTQVTVSA
For B1, the Kd amounted to 0.063 µM.

For the origin of these results see article PMC8219104 (Research Square, 2021).
